Laboratory results as given in US20030224997A1.
Positions of bridges follow the written chain, without caps; N, C: chain ends. No end group written: not given here. *: point of attachment. Biotin = O=C1N[C@H]2[C@H](CS[C@H]2CCCCC(=O)*)N1

What was measured:
[1] = target: protein on the CEM cell surface that binds L1AD3 (L1AD3 protein receptor, 27-35 kDa) (human)
[2] = target: protein on the CEM cell surface that binds L1AD3 (L1AD3 protein receptor, 27-35 kDa) (human); remark: listed apart in the source
[3] = target: protein on the CEM cell surface that binds L1AD3 (L1AD3 protein receptor, 27-35 kDa) (human); experiment: fluorescence spectroscopy, CEM cells in suspension, avidin-FITC

| Binder | percent reduction of binding of biotinylated peptide [1] | percent inhibition of binding of biotinylated L1AD3 [2] | Kd [1] | fluorescence increase over cells not incubated with biotinylated peptide [3] |
| --- | --- | --- | --- | --- |
| LKCNKLVPLFYKTC (disulfide 3-14) [L1AD3 peptide (…), cyclized] | 47% | 50% |  |  |
| Biotin-LKCNKLVPLFYKTC (disulfide 3-14) [biotinylated L1AD3 (btn-…), cyclized] |  |  | 6 µM | 48% |
